Results published in patent US20120128704A1 (published 2012).

T1: survivin peptide on HLA-A*02:01 (human)
T1 peptide: LMLGEFLKL

B1: SW-Surv-72 (TCR, V domains shown)
Valpha: AQKITQTQPGMFVQEKEAVTLDCTYDTSDQSYGLFWYKQPSSGEMIFLIYQGSYDEQNATEGRYSLNFQKARKSANLVISASQLGDSAMYFCAMREGGGYNKLIFGAGTRLAVHP
Vbeta: SQTIHQWPATLVQPVGSPLSLECTVEGTSNPNLYWYRQAAGRGLQLLFYSVGIGQISSEVPQNLSASRPQDRQFILSSKKLLLSDSGFYLCAGQDLNTEAFFGQGTRLTVV
B2: SW-Surv-22 (TCR, V domains shown)
Valpha: EDQVTQSPEALRLQEGESSSLNCSYTVSGLRGLFWYRQDPGKGPEFLFTLYSAGEEKEKERLKATLTKKESFLHITAPKPEDSATYLCAVQAYSNSGYALNFGKGTSLLVTP
Vbeta: SAVISQKPSRDICQRGTSLTIQCQVDSQVTMMFWYRQQPGQSLTLIATANQGSEATYESGFVIDKFPISRPNLTFSTLTVSNMSPEDSSIYLCSVEDSYGYTFGSGTRLTVV
B3: SW-Surv-66 (TCR, V domains shown)
Valpha: GENVEQHPSTLSVQEGDSAVIKCTYSDSASNYFPWYKQELGKRPQLIIDIRSNVGEKKDQRIAVTLNKTAKHFSLHITETQPEDSAVYFCAARAGNMLTFGGGTRLMVKP
Vbeta: SQTIHQWPATLVQPVGSPLSLECTVEGTSNPNLYWYRQAAGRGLQLLFYSVGIGQISSEVPQNLSASRPQDRQFILSSKKLLLSDSGFYLCAWGTGLALYEQYFGPGTRLTVT

Target: T1, survivin peptide on HLA-A*02:01
Test: multimer staining
Method: Up to 1×10⁶ of cells were incubated in 50 μl volume for 25 min with 4 μg PE-labeled multimer on ice in the dark. For sorting, up to 5×10⁶ cells were incubated with 12 μg multimer in 100 μl PBS+0.5% human serum. CD8-APC antibody was then added at 1/50 for an additional 25 min. After staining cells were washed twice and either fixed in FACS buffer with 1% paraformaldehyde and analysed by flow cytometry using a FACSCalibur (BD Biosciences) or diluted in PBS+0.5% human serum with PI for sorting. 20-50×10⁶ total cells per priming culture were stained for sorting. PI-negative cells were gated and CD8⁺multimer⁺ T cells were sorted on a FACSAria cell sorter (BD Biosciences) with a 70 μm nozzle, at a rate of 15,000 events/s. […] Pentamer staining was performed according to the manufacturer's instructions.

Binder | binding result
B1 | recognises
B2 | recognises
B3 | recognises
